Reference: US20150023979A1 (VALDOSPAN, published 2015)

Tests used:
[1] = target: T1, HPV39 E7 protein, recombinant (His-TEV-E7 fusion from E. coli) (Human Papilloma Virus type 39 (HPV39), UniProt P24837 1-109, CKII phosphorylation of the consensus site serine in the antigen preparation of Example 2); test: ELISA and dot-blot, semiquantitative crossreactivity
T1 construct: mature; also called VE7_HPV39; not shown: N-terminal 6x Histidine tag and TEV cleavage site of the vector
T1 sequence: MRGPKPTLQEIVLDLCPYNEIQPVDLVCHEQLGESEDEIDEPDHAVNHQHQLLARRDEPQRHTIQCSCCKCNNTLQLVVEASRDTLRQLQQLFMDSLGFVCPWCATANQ

[2] = target: T2, HPV45 E7 protein, recombinant (His-TEV-E7 fusion from E. coli) (Human Papilloma Virus type 45 (HPV45), UniProt P21736 1-106, CKII phosphorylation of the consensus site serines in the antigen preparation of Example 2; biotin on primary amines in the SPR assay); test: as above
T2 construct: mature; also called VE7_HPV45; not shown: N-terminal 6x Histidine tag and TEV cleavage site of the vector
T2 sequence: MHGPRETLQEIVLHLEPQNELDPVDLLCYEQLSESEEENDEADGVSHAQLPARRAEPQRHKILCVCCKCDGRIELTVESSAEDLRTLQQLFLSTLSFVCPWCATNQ

[3] = target: T3, HPV33 E7 protein, recombinant (His-TEV-E7 fusion from E. coli) (Human Papilloma Virus type 33 (HPV33), UniProt P06429 1-97, CKII phosphorylation of the consensus site serines in the antigen preparation of Example 2; biotin on primary amines in the SPR assay); test: ELISA and dot-blot, semiquantitative crossreactivity (++ strong positive)
T3 construct: mature; also called VE7_HPV33; not shown: N-terminal 6x Histidine tag and TEV cleavage site of the vector
T3 sequence: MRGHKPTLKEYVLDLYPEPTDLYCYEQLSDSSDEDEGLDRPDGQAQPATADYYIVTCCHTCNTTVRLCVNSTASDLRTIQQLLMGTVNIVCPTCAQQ

[4] = target: T4, HPV52 E7 protein, recombinant (His-TEV-E7 fusion from E. coli) (Human Papilloma Virus type 52 (HPV52), UniProt P36831 1-99, CKII phosphorylation of the consensus site serines in the antigen preparation of Example 2); test: as above
T4 construct: mature; also called VE7_HPV52; not shown: N-terminal 6x Histidine tag and TEV cleavage site of the vector
T4 sequence: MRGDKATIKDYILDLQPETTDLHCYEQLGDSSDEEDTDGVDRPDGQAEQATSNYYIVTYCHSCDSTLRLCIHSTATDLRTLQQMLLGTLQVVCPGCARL

[5] = target: T5, HPV31 E7 protein, recombinant (His-TEV-E7 fusion from E. coli) (Human Papilloma Virus type 31 (HPV31), UniProt P17387 1-98, CKII phosphorylation of the consensus site serines in the antigen preparation of Example 2); test: as above
T5 construct: mature; also called VE7_HPV31; not shown: N-terminal 6x Histidine tag and TEV cleavage site of the vector
T5 sequence: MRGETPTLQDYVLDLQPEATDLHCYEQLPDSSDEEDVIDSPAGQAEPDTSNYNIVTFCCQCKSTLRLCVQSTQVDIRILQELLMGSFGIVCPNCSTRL

[6] = target: T6, HPV5 E7 protein (beta-papillomavirus), recombinant (His-TEV-E7 fusion from E. coli) (Human Papilloma Virus type 5 (HPV5), UniProt P06932 1-103); test: ELISA and dot-blot
T6 construct: mature; also called VE7_HPV05; not shown: N-terminal 6x Histidine tag and TEV cleavage site of the vector
T6 sequence: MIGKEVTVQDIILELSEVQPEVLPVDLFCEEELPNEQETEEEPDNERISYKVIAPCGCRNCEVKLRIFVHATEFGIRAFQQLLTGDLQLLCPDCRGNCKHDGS

[7] = target: T7, HPV11 E7 protein (low risk type), recombinant (His-TEV-E7 fusion from E. coli) (Human Papilloma Virus type 11 (HPV11), UniProt P04020 1-98); test: ELISA and dot-blot
T7 construct: mature; also called VE7_HPV11; not shown: N-terminal 6x Histidine tag and TEV cleavage site of the vector
T7 sequence: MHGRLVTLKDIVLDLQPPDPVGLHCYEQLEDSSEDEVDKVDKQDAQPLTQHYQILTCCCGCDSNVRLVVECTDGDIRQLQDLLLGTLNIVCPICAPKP

[8] = target: T8, HPV38 E7 protein (beta-papillomavirus), recombinant (His-TEV-E7 fusion from E. coli) (Human Papilloma Virus type 38 (HPV38), UniProt Q80908 1-100); test: ELISA and dot-blot
T8 construct: mature; also called HPVE7 38; VE7_HPV38; not shown: N-terminal 6x Histidine tag and TEV cleavage site of the vector
T8 sequence: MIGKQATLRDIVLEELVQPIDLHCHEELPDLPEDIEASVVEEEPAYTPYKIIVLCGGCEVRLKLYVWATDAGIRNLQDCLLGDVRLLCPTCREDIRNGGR

[9] = target: T9, HPV6 E7 protein (low risk type), recombinant (His-TEV-E7 fusion from E. coli) (Human Papilloma Virus type 6 (HPV6), UniProt Q84292 1-98); test: ELISA and dot-blot
T9 construct: mature; the only HPV6 entry in the list of constructs is VE7_HPV6A; also called VE7_HPV6A; not shown: N-terminal 6x Histidine tag and TEV cleavage site of the vector
T9 sequence: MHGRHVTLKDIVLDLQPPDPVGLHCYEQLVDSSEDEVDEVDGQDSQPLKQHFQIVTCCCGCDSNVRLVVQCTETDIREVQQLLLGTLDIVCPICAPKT

[10] = target: T10, HPV35 E7 protein, recombinant (His-TEV-E7 fusion from E. coli) (Human Papilloma Virus type 35 (HPV35), UniProt P27230 1-99, CKII phosphorylation of the consensus site serines in the antigen preparation of Example 2); test: ELISA and dot-blot, semiquantitative crossreactivity (+ weak interaction)
T10 construct: mature; also called VE7_HPV35; not shown: N-terminal 6x Histidine tag and TEV cleavage site of the vector
T10 sequence: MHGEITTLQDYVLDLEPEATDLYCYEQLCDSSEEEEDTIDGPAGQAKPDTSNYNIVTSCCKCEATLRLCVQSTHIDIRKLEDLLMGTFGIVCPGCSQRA

B1: ACAB164 (antibody, V domains shown)
VH: EVQLQQSGLALVQPGASVKISCRTSGYTFTEYTLHWVKQSHGKSLEWIGGINPNNGSPKYNQKFKGKATLTVDKSSSTAYMELRSLTSEDSAVYYCARLDINSFFDYWGQGTTLTVSS
VL: DVVMTQSPLSLPVSLGDQASISCRSSQSLVHSNGNTYLQWYLQKPGQSPKLLIYKLSNRFSGVPDRFSGSGSGTDFTLKISRVEAEDLGVYSCSQTTHVPPTFGGGTKLEIKR
notes: the printed entries run on into the first residues of the constant domains; also called HPV16E7 IgG2a antibody ACAB164
binding result [1]: no binding
binding result [2]: no binding
binding result [3]: binds
binding result [4]: binds
binding result [5]: binds
binding result [6]: no binding
binding result [7]: no binding
binding result [8]: no binding
binding result [9]: no binding

B2: ACAB452 (antibody, IgG1, V domains shown)
VH: DVQLQESGPGLVKPSQSLSLTCTVTGYSITSDYAWNWIRQFPGNKLEWVGYITYSGSTNYNPSLKSRISITRDTSKNQFFLQFNSVTSEDTATYFCARSWFAYWGQGTLVTVSS
VL: DIVMTQTPLSLPVSLGDQASISCRSSQSLVHSNGNTYLHWFLQKPGQSPKLLIYKVSNRFSGVPDRFSGSGSGTDFTLKISRVEAEDLGVYFCLQSAHVPLTFGAGTKLELTR
notes: also called HPV45E7 IgG1 antibody ACAB452
binding result [10]: binds
binding result [6]: no binding
binding result [7]: no binding
binding result [8]: no binding
binding result [9]: no binding

B3: ACAB161 (antibody, IgG2a, V domains shown)
VH: EVMLVESGGGLVKPGGSLKLSCAASGFTFSRYTMSWVRQTPEKRLEWVATISSGGTNTNYTDSVKGRFTISRDNAKNNLYLQMSSLRSEDTALYYCTRGVRRGDGYAMDYWGQGTSVTVSS
VL: DIVLTQAAPSVPVTPGESVSISCRSTKSLLHSNGNTYLYWFLQRPGQSPQALIYRTSNLASGVPDRFSGSGSGTAFTLRISRVEAEDVGVYYCMQHLEYPLTFGAGTKLELKR
notes: the printed entries run on into the first residues of the constant domains; also called HPV16E7 IgG2a antibody ACAB161
binding result [1]: no binding
binding result [2]: no binding
binding result [10]: binds
binding result [3]: binds
binding result [4]: binds
binding result [5]: binds
binding result [6]: no binding
binding result [7]: no binding
binding result [8]: no binding
binding result [9]: no binding
